pKd: −log10 of the molar value.

Among the data in the Immune Epitope Database (IEDB) are Kd values, retold here.

Experiment [1] addresses HLA-A*02:02. The experiment can be described thus: IEDB peptide-MHC binding, purified MHC/competitive/radioactivity; filed as Kd, often an IC50 or EC50 that approximates it; ≥ and ≤ were set here for values at or beyond the usual limits of such assays.
The target of experiment [2] is HLA-A*02:06. The description is as above.
In experiment [3] the target is HLA-A*02:03. The experiment is described as above.
For experiment [4], the target named is HLA-A*30:01. The experiment is described as above.
Experiment [5] deals with HLA-A*03:01. The experiment can be described thus: IEDB peptide-MHC binding, purified MHC/direct/fluorescence; filed as Kd, often an IC50 or EC50 that approximates it; ≥ and ≤ were set here for values at or beyond the usual limits of such assays. Conditions: source organism: Francisella tularensis subsp. holarctica OSU18.
[6] abbreviates: source organism: Vaccinia virus WR.
Where [7] appears, read: source organism: Dengue virus 1 Singapore/S275/1990.
[8] abbreviates: source organism: SARS coronavirus Tor2.
[9] abbreviates: source organism: Mammarenavirus whitewaterense.
Setting [10] is: source organism: Dengue virus 2 Jamaica/1409/1983.
Where [11] appears, read: source organism: Dengue virus 1 Brazil/97-11/1997.
Setting [12] is: source organism: Mammarenavirus brazilense.
Setting [13] is: source organism: Dengue virus 3 Martinique/1243/1999.
The mark [14] stands for this setting: source organism: Mammarenavirus guanaritoense.

AITLVVISVI: the pKd (usually the Kd on a negative log10 scale, so that one unit is a factor of ten) in experiment [1] (setting [6]) is 6.39; in experiment [2] (setting [6]), 5.70; in experiment [3] (setting [6]), 6.10.
With ASKFVYVSV, the pKd in experiment [4] (setting [6]) is 8.51.
Turning to ATLNTLITL, the pKd in experiment [1] (setting [6]) is 6.43; in experiment [2] (setting [6]), 8.02; in experiment [3] (setting [6]), 6.24.
In the same order, the values of AVKFAEESYT are 5.75, 5.64 and 5.83.
As for AVKSEHTGK, in experiment [4] (setting [7]), the pKd is 7.19.
CLDAGINYV: the pKd in experiment [1] (setting [8]) is 9.24; in experiment [2] (setting [8]), 8.81; in experiment [3] (setting [8]) it was 8.19.
In the same order, the values of CVMYASALV are 8.35, 8.13 and 8.53.
In the case of DAIKSNNHLT, the pKd in experiment [1] (setting [6]) is at most 4.56; in experiment [2] (setting [6]) it was at most 4.16; in experiment [3] (setting [6]), 4.75.
The matching figures for DLFMSHVKSV: 5.47, 4.70 and 7.38.
In the same order, the values of DLLLPSTDV are 4.82, 5.97 and 5.41.
The matching figures for DLNAVTTNNL: 5.74, 5.12 and 5.79.
For the sequence DTSPTKRCRL, the pKd was 4.91 in experiment [1] (setting [6]), at most 4.35 in experiment [2] (setting [6]) and at most 4.43 in experiment [3] (setting [6]).
The matching figures for DVEKRILNT: 5.24, at most 4.11 and 5.17.
The matching figures for DVFRPLFDFV: 5.99, 6.63 and 5.59.
In the same order, the values of DVGCLLTDTI are 4.97, 5.00 and 4.81.
Regarding EQGDIALAL, the pKd in experiment [1] (setting [6]) is 6.15; in experiment [2] (setting [6]) it was 5.32; in experiment [3] (setting [6]), 4.95.
In the same order, the values of EQYTCNKPYT are 4.85, at most 4.34 and 5.52.
In the same order, the values of EVIERINLLV are 4.71, 6.52 and 5.48.
The matching figures for EVTPEYIKDL: 5.82, 5.12 and 5.64.
For the sequence FLLRGPFEAS, the figures for the pKd in experiment [1] (setting [9]), in experiment [2] (setting [9]) and in experiment [3] (setting [9]) were 7.57, 7.15 and 7.08, respectively.
FLTGTFVTA: the pKd was 8.33 in experiment [1] (setting [6]), 8.69 in experiment [2] (setting [6]) and 9.15 in experiment [3] (setting [6]).
The matching figures for FTKDGKLDDT: 6.84, 6.05 and 6.73.
In the same order, the values of GILIYDDNI are 4.93, 4.88 and 5.77.
Regarding GSRKSSSIL, in experiment [4] (source organism: Vaccinia virus Copenhagen), the pKd was 8.80.
On to GVLPEETNI, for which the pKd is 4.76 in experiment [1] (setting [6]), 6.24 in experiment [2] (setting [6]) and at most 4.69 in experiment [3] (setting [6]).
In the same order, the values of HVLLPFYET are 4.79, 5.76 and 4.73.
Consider HVLLPFYETL, for which the pKd in experiment [1] (setting [6]) was 7.53; in experiment [2] (setting [6]), 6.94; in experiment [3] (setting [6]), 6.67.
Turning to HVSISSCNG, the pKd in experiment [4] (setting [6]) is 6.30.
As for IALCKVTVPT, the results for the pKd in experiment [1] (setting [6]), in experiment [2] (setting [6]) and in experiment [3] (setting [6]) were 5.71, 6.19 and 5.65, respectively.
The matching figures for IICEDAMYYA: 7.62, 8.06 and 6.97.
In the same order, the values of ILQMREIIT are 5.39, 5.91 and 5.87.
Regarding INRFTMRHK, in experiment [4] (source organism: Dengue virus 2 Peru/IQT2913/1996), the pKd is 5.95.
Regarding ITDNGPMPYM, the results for the pKd in experiment [1] (setting [6]), in experiment [2] (setting [6]) and in experiment [3] (setting [6]) were 6.08, 6.52 and 5.93, respectively.
KAKRGTAQI: the pKd in experiment [4] (setting [7]) was 6.54.
With KAKWLTPFE, the pKd in experiment [4] (setting [6]) is 6.18.
On the same count and under the same terms, the same measure for KFRPLMIFM: 8.74; for KIKAGPRYV: 8.16.
As for KIKQTGINNV, the pKd was 6.63 in experiment [1] (setting [6]), 5.59 in experiment [2] (setting [6]) and 8.51 in experiment [3] (setting [6]).
KMLEASTIY: in experiment [5], the pKd was 6.72.
For KSHTLWSNG, the pKd in experiment [4] (setting [10]) was 6.37.
As to KTPLYYLSGT, the figures for the pKd in experiment [1] (setting [6]), in experiment [2] (setting [6]) and in experiment [3] (setting [6]) were at most 4.66, 5.85 and 5.51, respectively.
Take KVKKRYPEF: the pKd in experiment [4] (setting [6]) was 6.99.
As for KVVRVQRPA, the pKd in experiment [4] (setting [11]) was 7.21.
As to LAAVSVSPLL, the pKd in experiment [4] (setting [10]) was 5.22.
Same read-out and setting: in the case of LALLAAFKVR it was 7.13.
On to LISLINSLV, for which the values for the pKd in experiment [1] (setting [6]), in experiment [2] (setting [6]) and in experiment [3] (setting [6]) were 9.32, 7.14 and 9.32, respectively.
Regarding LLKCVSDSWL, the results for the pKd in experiment [1] (setting [6]), in experiment [2] (setting [6]) and in experiment [3] (setting [6]) were 7.12, 5.33 and 6.93, respectively.
The matching figures for LLNVQTLISL: 7.63, 7.01 and 7.79.
The matching figures for LLWFLTGTFV: 8.62, 7.74 and 8.04.
The matching figures for LMLHNPTSET: at most 4.41, 4.95 and 5.35.
Turning to LMTLDDLAI, the values for the pKd in experiment [1] (setting [6]), in experiment [2] (setting [6]) and in experiment [3] (setting [6]) were 7.29, 6.54 and 7.12, respectively.
In the case of LRFLTIPPTA, in experiment [4] (setting [10]), the pKd was 6.02.
Turning to LRYFIMAYV, the pKd in experiment [1] (setting [12]) was 6.67; in experiment [2] (setting [12]), at most 4.70; in experiment [3] (setting [12]), 6.40.
Turning to LTPFEKEFT, the results for the pKd in experiment [1] (setting [6]), in experiment [2] (setting [6]) and in experiment [3] (setting [6]) were 4.77, at most 4.11 and at most 4.68, respectively.
For LTSNCTRTT, the pKd in experiment [1] (setting [6]) was at most 4.11; in experiment [2] (setting [6]) it was at most 4.39; in experiment [3] (setting [6]), at most 4.53.
As to LTSVDIETA, the values for the pKd in experiment [1] (setting [6]), in experiment [2] (setting [6]) and in experiment [3] (setting [6]) were 5.31, 6.51 and 4.94, respectively.
Consider LVMDKNHAI, for which the pKd was 7.72 in experiment [1] (setting [6]), 6.99 in experiment [2] (setting [6]) and 6.11 in experiment [3] (setting [6]).
The matching figures for LVQYRILPMI: 4.90, 6.15 and 5.92.
For the sequence MGRFGYVPY, the pKd in experiment [4] (setting [6]) is 7.83.
On to MISTYPGNT, for which the pKd is 5.26 in experiment [1] (setting [6]), at most 4.59 in experiment [2] (setting [6]) and 6.64 in experiment [3] (setting [6]).
MLLTFLTSLL: the pKd is 9.13 in experiment [1] (setting [8]), 7.61 in experiment [2] (setting [8]) and 8.13 in experiment [3] (setting [8]).
MLNRVQILM: the pKd is 8.32 in experiment [1] (setting [6]), 5.59 in experiment [2] (setting [6]) and 7.57 in experiment [3] (setting [6]).
As for MRRERAAYV, the pKd in experiment [4] (setting [6]) was 7.66.
Same read-out and setting: in the case of MTFGDIPLV it was 6.63.
Take NIDSIMSMM: the negative-log Kd (pKd) in experiment [1] (setting [6]) was 7.60; in experiment [2] (setting [6]), 5.33; in experiment [3] (setting [6]), 6.06.
The matching figures for NIFMTLVPV: 7.06, 6.64 and 8.20.
The matching figures for QLVFNSISA: 5.32, 5.42 and 5.81.
For RARNRVSTG, in experiment [4] (setting [11]), the pKd was 6.74.
For the sequence RIYCSLFKNV, the negative-log Kd (pKd) in experiment [1] (setting [6]) is 6.04; in experiment [2] (setting [6]), 8.15; in experiment [3] (setting [6]), 7.53.
In the case of RLKRMAISG, the pKd in experiment [4] (setting [11]) was 6.86.
In the case of SLEATFIDV, the pKd was 7.46 in experiment [1] (setting [6]), 7.99 in experiment [2] (setting [6]) and 7.09 in experiment [3] (setting [6]).
With SLLRNDVPMA, the pKd in experiment [4] (setting [13]) was 5.61.
With SLVKPTVYV, the pKd is 6.97 in experiment [1] (setting [8]), 6.33 in experiment [2] (setting [8]) and 7.43 in experiment [3] (setting [8]).
On to SMYVIPDEL, for which the pKd in experiment [1] (setting [6]) is 8.30; in experiment [2] (setting [6]) it was 5.55; in experiment [3] (setting [6]), 7.87.
The matching figures for STQQNKLVI: at most 4.28, at most 4.11 and 4.84.
In the same order, the values of TIILNKIVQL are 5.75, 7.52 and at most 4.31.
TLATGPITTL: the pKd in experiment [3] (setting [13]) was 7.92.
TLIDFYLCFL: the negative logarithm of the Kd (pKd) was 10.39 in experiment [1] (setting [8]), 8.52 in experiment [2] (setting [8]) and 8.45 in experiment [3] (setting [8]).
On to TLIQYRQQL, for which the pKd in experiment [1] (setting [6]) is 6.89; in experiment [2] (setting [6]), 5.73; in experiment [3] (setting [6]) it was 6.39.
For the sequence TLYAVATTIL, the pKd in experiment [3] (source organism: Dengue virus 4 Philippines/H241/1956) is 7.00.
Turning to TVEFDRDKVV, the pKd in experiment [1] (setting [6]) is 4.79; in experiment [2] (setting [6]), at most 4.51; in experiment [3] (setting [6]), 5.80.
The matching figures for VAEHRFENM: 5.15, at most 4.32 and 5.15.
Take VCFWSTLFYV: the results for the pKd in experiment [1] (setting [9]), in experiment [2] (setting [9]) and in experiment [3] (setting [9]) were 6.46, 5.95 and 5.15, respectively.
For YCNYTRFWYI, the pKd in experiment [1] (setting [14]) was 5.98; in experiment [2] (setting [14]), 7.09; in experiment [3] (setting [14]) it was 5.36.
As for YVILKDPRI, the pKd is 5.81 in experiment [1] (setting [6]), 7.93 in experiment [2] (setting [6]) and 6.69 in experiment [3] (setting [6]).
